The record followed here is publication PMC8826447 (Nature Communications, 2022).

Ends that are not written are not given here. * marks the point of attachment. FITC = O=C1OC2(c3ccc(O)cc3Oc3cc(O)ccc32)c2ccc(NC(=S)*)cc21; βAla = NCCC(=O)O

Series [1] addresses T1, ASF1a-NT domain (ASF1a residues 1–155) (human, UniProt Q9Y294 1-155).
T1 construct: anti-silencing factor 1a (ASF1a), human, N-terminal immunoglobulin-like domain, residues 1-155; Cloned into pGEX4T-1 as an N-terminal GST fusion and eluted with glutathione; No cleavage step is described; the structures are described with ASF1a residues only (151-155 residues per chain); also called ASF1a 1–155; ASF1-NT; source: E. coli BL21 (DE3) Rosetta 2, purified (glutathione-Sepharose, SEC)
Nature of the series: fluorescence polarisation; competition: 63 nM ASF1a 1–155 with 5 nM FITC tracer peptide and rising unlabeled peptide (15.6 nM to 256 μM for the TLK2 peptide); 50 mM Tris pH 8.0, 100 mM NaCl, 10 mM MgCl2, 1.2 mM DTT, 0.012% Brij-35, 0.2 mg/ml BSA; 295 K. The conditions noted are these: both partners purified.

The target in series [2] is T1, ASF1a-NT domain (ASF1a residues 1–155). Kind of series: differential scanning fluorimetry; melting temperature of ASF1a 1–155 with or without 160 μM TLK2 peptide; 20 mM HEPES, 250 mM NaCl, 0.1 mM TCEP, pH 7.5; SYPRO orange; ramp 4 to 95 °C. The following applies: both partners purified. For orientation: In DSF a fluorescence change marks the thermal transition of the protein.

As a reminder, the EC50 is the concentration at which the effect is half-maximal. A low value points to greater potency.

T1 sequence (Q9Y294 1-155): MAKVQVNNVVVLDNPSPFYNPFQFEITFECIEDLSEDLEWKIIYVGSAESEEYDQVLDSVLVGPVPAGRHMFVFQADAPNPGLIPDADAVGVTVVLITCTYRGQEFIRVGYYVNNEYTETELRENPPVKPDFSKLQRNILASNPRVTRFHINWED

B1: TLK2 peptide spanning residues 3–23 (peptide)
peptide: EELHSLDPRRQELLEARFTGV
notes: TLK2, human, residues 3-23; also called N-terminal TLK2 peptide; unlabeled TLK2 peptide; source: synthetic peptide (Genscript, >98% purity)
Consider B1, for which it took 2200 nM to reach a half-maximal effect in series [1] (EC50). For the same molecule, the “increase of melting temperature (160 μM peptide)” value in series [2] was around 5 °C.

B2: histone H3.1 peptide (ASF1-binding fragment) (peptide)
peptide: TIMPKDIQLARRIRGERA
notes: also called Histone H3 peptide; source: synthetic peptide (Genscript, >98% purity)
On to B2, for which the binding result in series [1] is recorded as “binds”.

B3: fluorescein-labeled TLK2 tracer peptide (FITC-βAla-LHSLDPRRQELLEARFTG) (peptide)
peptide: {FITC-βAla}-LHSLDPRRQELLEARFTG
notes: TLK2, human, N-terminal stretch; also called fluorescently labeled TLK2 peptide; TLK2 fluorescent peptide; source: synthetic peptide (Tufts University Core Facility, purified by HPLC)
As to B3, in series [1], the binding result was “binds”.
